# Data: patent US20100209447A1 (TUFTS UNIVERSITY, published 2010)
# Biological target: the molecule itself
# Assay: Coomassie-stained gel; self-association inferred from a band of about 17 kD against a 3.5 kD monomer
protein,measurement,value
"CGGGARKKAAKAARKKAAKAARKKAAKAARKKAAKA (Synthetic peptide with a 3.5 kD monomer; also called cysteine containing POD; cysteine-POD) [C-POD, CGGG(ARKKAAKA)4]",binding result,binds
